{"source": "a protein production outcome set (Wang et al. 2014)"}
{"test": "label from the status in PepcDB records"}
{"sequence": "MEGGYKLNITKAIVVAIYIIVGAALGVIIIPEVVTDLGIHHHAVITNYYVDGFIGIIIFFIIFGLFINKVTYAFKQFEQLIMRRSAVEILFATIGLIIGLFISVMVSFILEMIGNSILNHFVPMIITIILCYLGFQFGLKKRDEMLMFLPENMARSMSNNIRRATPKIVDTSAIIDGRILDIIRCGFIDGDILIPQGVINELQVIADAKDSVKREKGQRGLDILNQLYDLDYPTRVIHPTQSHSDIDTLLIKLAQQYHAHVITTDFNLNKVCHVQGITALNVNDLSEAIKPNVHQGDQLSILLTKIGKEPGQGVGYLDDGTMVVVDNAKSYIGQQVNLEVVSLLQTSSGRIVFAKFVD", "protein production": "failed"}
{"sequence": "MEGSSSTIARKTWELENSILTVDSPDSTSDNIFYYDDTSQTRFQQEKPWENDPHYFKRVKISALALLKMVVHARSGGTIEIMGLMQGKTDGDTIIVMDAFALPVEGTETRVNAQDDAYEYMVEYSQTNKLAGRLENVVGWYHSHPGYGCWLSGIDVSTQRLNQQHQEPFLAVVIDPTRTVSAGKVEIGAFRTYSKGYKPPDEPVSEYQTIPLNKIEDFGVHCKQYYSLDVTYFKSSLDSHLLDLLWNKYWVNTLSSSPLLGNGDYVAGQISDLAEKLEQAESHLVQSRFGGVVPSSLHKKKEDESQLTKITRDSAKITVEQVHGLMSQVIKDELFNSMRQSNNKSPTDSSDPDPMITY", "protein production": "failed"}
{"sequence": "MEGWDPNTKSTLTRIPLLTTKAGPRDGAAWTQRLKEEYKSLIAYTQMNKSNDNDWFRISASNPEGTRWTGKCWYVHNLLKYEFDLQFDIPITYPATAPELELPEIDGKTQKMYRGGKICLTVHFKPLWAKNCPRFGIAHALCLGLAPWLAAEIPILVDSGAIKHKDDAATSAES", "protein production": "failed"}
{"sequence": "MEHEYQRAVTRVCVQTALLLLQHGAESTVVVQMAQRLGVALGVESVECALTANAVVLTTLSDNHCITTARKNTDKGINMQMVTDVQRIVIAVEHHLYELEIAQRKLDQLKPLKYNRWLVVFMIGLSCAAFAHLSSGDWIICGITIFMLKLLYDMLFAAIPAVGFALVFNVPPKALKYCAILAALGHVTRTLLLHINMPIVFATFFATCVIGFLGVHLSHRYLAHPKAFTVAAIIPMIPGVHAYKAMISMVQIHHFGFSDALFEQMISSFINTSFILGAIVFGLALPGLLFYRQKPVV", "protein production": "failed"}
{"sequence": "MEHGTESFWTDIKRYEDILAKDPGSYCFAPLSELYRKVGLLDDAIMTARTGIGQHPEYVGGYMALGRACFEKGERTESRAALEKVVRVTPDNLLAQKLLSQIYVDAGESDLARRCLEIILSLSPGDLESKLMLDAMCRQPRENADRADDLFNEMGAAAAIDLEDESLLEEIEIIEELVDEVVDEEDLAAFTAHAPPPPLAEESFADVLLDEEPVANADVPSPRDVLSTGTVADLYIAQGFPKKALAIYRDLLDADPLNEDIRNRMVDLKKRIDEDEARARESVLAEAVSATDTTAQIQGDLTADREAFKEEAASGFAVESAHEVDIPLEVAVSAESSLNVAEEKEASAAHVVSALEGWLDSIRRIRQCRSVLH", "protein production": "failed"}
{"sequence": "MEHSGTSEVTGADTAGPDPQLAVTMGFTGFGKKARTFDLEAMFEQTRRTAVERSRKTLEAREKEEEMNREKELRKQIEDMEPAPSSSSAARERSQSSCRDTSSSDSESDDSSDSSDDELIGPPLPPKMVGESVTTVDEGTLGPLPPPLCEEGEDDDDDELDDEGEEDNPVQRIPDSHEITLRHGTKTVSALGLDPSGARLVTGGYDYDVKFWDFAGMDASFKAFRSLQPCECHQIKSLQYSNTGDMILVVSGSSQAKVIDRDGFEVMECIKGDQYIVDMANTKGHTAMLHTGSWHPKIKGEFMTCSNDATVRLWEVENPKKQKSVFKPRTMQGKKVIPTTCTYSRDGNLVAAACQNGSIQIWDRNLTVHPKFHYKQAHDPGTDTSCVAFSYDGNVLASRGGDDTLKLWDVRQFNKPLFSASDLPTLFPMTDCCFSPDDKLIVTGTSVQRGCGSGKLVFLERRTFQRVYEIHITDASVVRCLWHPKLNQIMVGTGNGLAKVYYDPNKSQRGAKLCVVKTQRKAKQAETLTQDYIITPHALPMFREPRQRSTRKQLEKDRLDPLKSHKPEPPVAGPGRGGRVGTHGGTLSSYIVKNIALDKTDDSNPREAILRHAKAAEDNPYWVSPAYSKTQPKTMFAQVESDDEESKNEPEWKKRKI", "protein production": "failed"}
{"sequence": "MEHWNKTFCLEVKGDYACFTRPEMKVERVSYDVITPSAARGIFEAIFWKPAIRWRIRKIEVLNPIKWISVRRNEVGQTASERSDGIFIETARQQRAGLFLRDVAYRLHAELEFVPPSERPDAKRPVPESLQDGRETSELRKDENPGKYYAIFERRARKGQCFNQPYLGCREFSCEFRLVDDLANEPPPISETRNLGFMLYDLDFQKNLKEPPPAFFPACLEKGVIKVPDWESEEVRK", "protein production": "failed"}
{"sequence": "MEIASQEDHDMPIPLNTTFGGGGSHGHMIHHHDHHAANSAPPTHNNNNTTQPPPMPLHGNGHGNNYDHHHHQDPHHVGYNAIIKKPMIKYKECLKNHAAAMGGNATDGCGEFMPSGEDGSIEALTCSACNCHRNFHRKEVEGELAATAMSPYHQHPPHRKLMLNHQKIRSAMPHQMIMPIGVSNYRYMHNNSESEDFMEEDGVTTASRSLPNLPYNQKKRFRTKFTPEQKEKMLSFAEKVGWKIQRQEDCVVQRFCEEIGVKRRVLKVWMHNNKIHFSKKNNINLEDNDNEKINNLNNVDLSGNNDMTKIVP", "protein production": "failed"}
{"sequence": "MEIFGKTFREGRFVLKEKNFTVEFAVEKIHLGWKISGRVKGSPGRLEVLRTKAPEKVLVNNWQSWGPCRVVDAFSFKPPEIDPNWRYTASVVPDVLERNLQSDYFVAEEGKVYGFLSSKIAHPFFAVEDGELVAYLEYFDVEFDDFVPLEPLVVLEDPNTPLLLEKYAELVGMENNARVPKHTPTGWCSWYHYFLDLTWEETLKNLKLAKNFPFEVFQIDDAYEKDIGDWLVTRGDFPSVEEMAKVIAENGFIPGIWTAPFSVSETSDVFNEHPDWVVKENGEPKMAYRNWNKKIYALDLSKDEVLNWLFDLFSSLRKMGYRYFKIDFLFAGAVPGERKKNITPIQAFRKGIETIRKAVGEDSFILGCGSPLLPAVGCVDGMRIGPDTAPFWGEHIEDNGAPAARWALRNAITRYFMHDRFWLNDPDCLILREEKTDLTQKEKELYSYTCGVLDNMIIESDDLSLVRDHGKKVLKETLELLGGRPRVQNIMSEDLRYEIVSSGTLSGNVKIVVDLNSREYHLEKEGKSSLKKRVVKREDGRNFYFYEEGERE", "protein production": "not failed"}
{"sequence": "MEIFKPDYLMIDSMIFFPTLILSFLIKRNYVKLLKSIGIVSPIYLFWDFLATWRNSWTFNPKYVAGIYVIDLPIEEVMFFLVTPFATLLIFDFVMGKVRDKEVKWVPKVVCVAIPLLLLTLPFVYNYSYTFIDLVYLIMSLIVSLLIGRNLLASRNFWIFMGLSYIPFLVFDYFLTSDPVVIYGSHSIVGIRFITIPIEDFIYSFSMITFYTVFYIRGNSLWMKQK", "protein production": "failed"}
{"sequence": "MEIHFEKVTSDNRKAVENLQVFAEQQAFIESMAENLKESDQFPEWESAGIYDGNQLIGYAMYGRWQDGRVWLDRFLIDQRFQGQGYGKAACRLLMLKLIEKYQTNKLYLSVYDTNSSAIRLYQQLGFVFNGELDTNGERVMEWTHQNK", "protein production": "not failed"}
{"sequence": "MEIIHLSEIDSTNDYAKELAKEGKRNFIVLADKQNNGKGRWGRVWYSDEGGLYFSMVLDSKLYNPKVINLLVPICIIEVLKNYVDKELGLKFPNDIMVKVNDNYKKLGGILTELTDDYMIIGIGINVNNQIRNEIREIAISLKEITGKELDKVEILSNFLKTFESYLEKLKNKEIDDYEILKKYKKYSITIGKQVKILLSNNEIITGKVYDIDFDGIVLGTEKGIERIPSGICIHVR", "protein production": "not failed"}
{"sequence": "MEIIIYIFVSIAIISLQAITPFVIRKSECFGVNVGERANRNAELTQLKKQYVGQVILWTSFVAIIGIALIQGFHSSENTQAGIFIASMFSQLIVSFIIYYRFHHTTLQWKRDKIEAGEISTNSIIMVDTSFHRRKMVISYTWFIVPLLIFIITLAITVVFYSTAPVDFPIHFDMSGTVTDTVAKSPRVVLLLPMMQLGMIALFIFINFVIARSKQTVENENPTDSLKRNMLFRQISSKAMLIMCTIMVIDFLIMQVVTLLALPAEWMMVTMIISVVLILFGTVLLAVKVGQGGSRLKFADQPDGVNKPIRDDDSFWKAGVIYFNRNDPALFVEKRFGIGWTINTARPVAWLSFVIIIAVIILISILF", "protein production": "failed"}
